Measurements taken from patent publication US20220251619A1.

Target: porcine pancreatic elastase (Merck, Germany, Cat. No. 324682) (porcine) (UniProt P00772)
Assay: cell-based or functional assay

Sequence of UniProt P00772 (P00772 27-266 limits assumed): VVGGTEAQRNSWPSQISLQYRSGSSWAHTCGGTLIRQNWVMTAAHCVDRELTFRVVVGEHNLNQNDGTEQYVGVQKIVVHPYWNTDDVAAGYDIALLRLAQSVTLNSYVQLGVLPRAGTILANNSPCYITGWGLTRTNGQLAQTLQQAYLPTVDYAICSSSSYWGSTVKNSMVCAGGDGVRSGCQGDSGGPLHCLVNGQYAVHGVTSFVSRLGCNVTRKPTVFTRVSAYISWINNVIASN

Row | % active AAT relative to plasma-derived AAT (elastase inhibition, SAPNA hydrolysis at 410 nm), Assay 1 [%] | % active AAT relative to plasma-derived AAT (elastase inhibition, SAPNA hydrolysis at 410 nm), Assay 2 [%] | Average % Activity (elastase inhibition, SAPNA hydrolysis at 410 nm) [%] | Substance
1 | 90.1 | 88.6 | 89.3 | recombinant alpha-1 antitrypsin produced in CHO-DG44 cells, untreated (from UniProt P01009 25-418)
2 | 97.1 | 93 | 95.4 | remodelled rAAT (rAAT incubated with beta1,4-galactosyltransferase, alpha2,3 sialyltransferase from Pasteurella multocida and alpha2,6 sialyltransferase from Photobacterium damselae, then purified) (from UniProt P01009 25-418)
